T1: human claudin 6 (CLDN6) (human, UniProt P56747 1-220)
T1 construct: also called human CLDN6; hCLDN6
T1 sequence: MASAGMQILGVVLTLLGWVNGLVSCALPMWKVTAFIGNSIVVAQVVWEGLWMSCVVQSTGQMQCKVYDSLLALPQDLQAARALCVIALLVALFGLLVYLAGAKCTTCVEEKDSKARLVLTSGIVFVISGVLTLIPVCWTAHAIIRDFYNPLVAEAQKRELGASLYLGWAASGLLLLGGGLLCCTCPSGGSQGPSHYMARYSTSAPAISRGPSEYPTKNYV


Experiments:
human claudin 6 (CLDN6) [1] = target: T1, human claudin 6 (CLDN6); test: flow cytometry, HEK293T-human CLDN6 cells; ratio to chBG87P
Method: (§1) For affinity determination, CLDN6 over-expressing HEK293T cells and cancer cell line PA-1 which express high levels of human CLDN6 were used to evaluate the binding activity of BG87P related engineering variants. Live cells were seeded in 96-well plate, and were incubated with a series of dilutions of chBG87P and engineered variants thereof. Goat anti-human IgG was used as second antibody to detect antibody binding to the cell surface. EC50 values for dose-dependent binding to CLDN6 expressing cell lines were determined by fitting the dose-response data to the four-parameter logistic model with GraphPad Prism. Cell binding activity of 1st round of BG87P humanization variants against HEK293T/human CLDN6 were compared to chBG87P and shown in FIG. 1A.

human claudin 6 (CLDN6) [2] = target: T1, human claudin 6 (CLDN6); test: flow cytometry, PA-1 cells; ratio to chBG87P
Method: as §1

Row | Emax ratio to BG87P (human claudin 6 (CLDN6) [1]) | Emax ratio to BG87P (human claudin 6 (CLDN6) [2]) | Binder
1 | 1.08 | – | BG87P-m1 (antibody, V domains shown, PTM removal variant of chBG87P) VH: QIQLQQSGPELVKPGASVKISCKASGYSFTDYHINWVKQRPGQGLEWIGWIYPGSGYTKYNEKFKVKATLTVDTSSSTAYMHLTSLTSEDSAVYFCARSGIYHYVSSYYFEHWGQGTTLTVSS VL: DIVMTQSHTFMSTSVGDRVSITCKASQDVGTAVAWYQQKPGQSPKLLIYWASTRHTGVPDRFTGSGSGTDFTLTISNVQSEDLADYFCQQYSSYTFGGGTKLEIK
2 | 1.18 | – | BG87P-m3 (antibody, V domains shown, PTM removal variant of chBG87P with VH V65G) VH: QIQLQQSGPELVKPGASVKISCKASGYSFTDYHINWVKQRPGQGLEWIGWIYPGSGYTKYNEKFKGKATLTVDTSSSTAYMHLTSLTSEDSAVYFCARSGIYHYVSSYYFDHWGQGTTLTVSS VL: DIVMTQSHTFMSTSVGDRVSITCKASQDVGTAVAWYQQKPGQSPKLLIYWASTRHTGVPDRFTGSGSGTDFTLTISNVQSEDLADYFCQQYSSYTFGGGTKLEIK
3 | 1.05 | – | BG87P-m2 (antibody, V domains shown, PTM removal variant of chBG87P) VH: QIQLQQSGPELVKPGASVKISCKASGYSFTDYHINWVKQRPGQGLEWIGWIYPGSGYTKYNEKFKVKATLTVDTSSSTAYMHLTSLTSEDSAVYFCARSGIYHYVSSYYFQHWGQGTTLTVSS VL: DIVMTQSHTFMSTSVGDRVSITCKASQDVGTAVAWYQQKPGQSPKLLIYWASTRHTGVPDRFTGSGSGTDFTLTISNVQSEDLADYFCQQYSSYTFGGGTKLEIK
4 | 0.74 | – | BG87P-m4 (antibody, V domains shown, Variant of chBG87P with H33A) VH: QIQLQQSGPELVKPGASVKISCKASGYSFTDYAINWVKQRPGQGLEWIGWIYPGSGYTKYNEKFKVKATLTVDTSSSTAYMHLTSLTSEDSAVYFCARSGIYHYVSSYYFDHWGQGTTLTVSS VL: DIVMTQSHTFMSTSVGDRVSITCKASQDVGTAVAWYQQKPGQSPKLLIYWASTRHTGVPDRFTGSGSGTDFTLTISNVQSEDLADYFCQQYSSYTFGGGTKLEIK
5 | 0.56 | – | BG87P-Bz0 (antibody, V domains shown, Humanized, all back mutations; also called BG87P-B20; BG87-Bz0) VH: QIQLVQSGAEVKKPGASVKVSCKASGYSFTDYHINWVRQAPGQRLEWMGWIYPGSGYTKYNEKFKVRVTLTVDTSASTAYMELSSLRSEDTAVYFCARSGIYHYVSSYYFDHWGKGTTVTVSS VL: DIQMTQSPSTLSASVGDRVTITCKASQDVGTAVAWYQQKPGKSPKLLIYWASTRHTGVPSRFSGSGSGTEFTLTISSVQPDDFATYFCQQYSSYTFGGGTKVEIK
6 | 0.62 | – | BG87P-m6 (antibody, V domains shown, PTM removal variant of BG87P-Bz0) VH: QIQLVQSGAEVKKPGASVKVSCKASGYSFTDYHINWVRQAPGQRLEWMGWIYPGSGYTKYNEKFKVRVTLTVDTSASTAYMELSSLRSEDTAVYFCARSGIYHYVSSYYFQHWGKGTTVTVSS VL: DIQMTQSPSTLSASVGDRVTITCKASQDVGTAVAWYQQKPGKSPKLLIYWASTRHTGVPSRFSGSGSGTEFTLTISSVQPDDFATYFCQQYSSYTFGGGTKVEIK
7 | 0.68 | – | BG87P-Bz8 (antibody, V domains shown) VH: QIQLVQSGAEVKKPGASVKVSCKASGYSFTDYHINWVRQAPGQRLEWMGWIYPGSGYTKYNEKFKVRVTLTVDTSASTAYMELSSLRSEDTAVYFCARSGIYHYVSSYYFDHWGKGTTVTVSS VL: DIQMTQSPSTLSASVGDRVTITCKASQDVGTAVAWYQQKPGKSPKLLIYWASTRHTGVPSRFSGSGSGTEFTLTISSVQPDDFATYYCQQYSSYTFGGGTKVEIK
8 | 0.7 | – | BG87P-m7 (antibody, V domains shown, PTM removal variant of BG87P-Bz0) VH: QIQLVQSGAEVKKPGASVKVSCKASGYSFTDYHINWVRQAPGQRLEWMGWIYPGSGYTKYNEKFKGRVTLTVDTSASTAYMELSSLRSEDTAVYFCARSGIYHYVSSYYFDHWGKGTTVTVSS VL: DIQMTQSPSTLSASVGDRVTITCKASQDVGTAVAWYQQKPGKSPKLLIYWASTRHTGVPSRFSGSGSGTEFTLTISSVQPDDFATYFCQQYSSYTFGGGTKVEIK
9 | 0.73 | – | BG87P-Bz5 (antibody, V domains shown, also called BG87P-B25) VH: QIQLVQSGAEVKKPGASVKVSCKASGYSFTDYHINWVRQAPGQRLEWMGWIYPGSGYTKYNEKFKVRVTLTVDTSASTAYMELSSLRSEDTAVYYCARSGIYHYVSSYYFDHWGKGTTVTVSS VL: DIQMTQSPSTLSASVGDRVTITCKASQDVGTAVAWYQQKPGKSPKLLIYWASTRHTGVPSRFSGSGSGTEFTLTISSVQPDDFATYFCQQYSSYTFGGGTKVEIK
10 | 0.73 | 0.5 | BG87P-24 (antibody, V domains shown) VH: QVQLVQSGAEVKKPGASVKVSCKASGYSFTDYHINWVRQAPGQRLEWMGWIYPGSGYTKYNEKFKGRVTLTRDTSASTAYMELSSLRSEDTAVYYCARSGIYHYVSSYYFDHWGKGTTVTVSS VL: DIQMTQSPSTLSASVGDRVTITCKASQDVGTAVAWYQQKPGKAPKLLIYWASTRHTGVPSRFSGSGSGTEFTLTISSLQPDDFATYYCQQYSSYTFGGGTKVEIK
11 | 0.81 | – | BG87P-Bz7 (antibody, V domains shown, also called BG87P-B27) VH: QIQLVQSGAEVKKPGASVKVSCKASGYSFTDYHINWVRQAPGQRLEWMGWIYPGSGYTKYNEKFKVRVTLTVDTSASTAYMELSSLRSEDTAVYFCARSGIYHYVSSYYFDHWGKGTTVTVSS VL: DIQMTQSPSTLSASVGDRVTITCKASQDVGTAVAWYQQKPGKSPKLLIYWASTRHTGVPSRFSGSGSGTEFTLTISSLQPDDFATYFCQQYSSYTFGGGTKVEIK
12 | 0.52 | – | BG87P-Bz1 (antibody, V domains shown) VH: QVQLVQSGAEVKKPGASVKVSCKASGYSFTDYHINWVRQAPGQRLEWMGWIYPGSGYTKYNEKFKVRVTLTVDTSASTAYMELSSLRSEDTAVYFCARSGIYHYVSSYYFDHWGKGTTVTVSS VL: DIQMTQSPSTLSASVGDRVTITCKASQDVGTAVAWYQQKPGKSPKLLIYWASTRHTGVPSRFSGSGSGTEFTLTISSVQPDDFATYFCQQYSSYTFGGGTKVEIK
13 | 0.66 | – | BG87P-m5 (antibody, V domains shown, PTM removal variant of BG87P-Bz0) VH: QIQLVQSGAEVKKPGASVKVSCKASGYSFTDYHINWVRQAPGQRLEWMGWIYPGSGYTKYNEKFKVRVTLTVDTSASTAYMELSSLRSEDTAVYFCARSGIYHYVSSYYFEHWGKGTTVTVSS VL: DIQMTQSPSTLSASVGDRVTITCKASQDVGTAVAWYQQKPGKSPKLLIYWASTRHTGVPSRFSGSGSGTEFTLTISSVQPDDFATYFCQQYSSYTFGGGTKVEIK
14 | 0.57 | – | BG87P-Bz4 (antibody, V domains shown, also called BG87P-B24) VH: QIQLVQSGAEVKKPGASVKVSCKASGYSFTDYHINWVRQAPGQRLEWMGWIYPGSGYTKYNEKFKVRVTLTRDTSASTAYMELSSLRSEDTAVYFCARSGIYHYVSSYYFDHWGKGTTVTVSS VL: DIQMTQSPSTLSASVGDRVTITCKASQDVGTAVAWYQQKPGKSPKLLIYWASTRHTGVPSRFSGSGSGTEFTLTISSVQPDDFATYFCQQYSSYTFGGGTKVEIK
15 | 0.77 | 0.58 | BG87P-23 (antibody, V domains shown) VH: QIQLVQSGAEVKKPGASVKVSCKASGYSFTDYHINWVRQAPGQRLEWMGWIYPGSGYTKYNEKFKGRVTITRDTSASTAYMELSSLRSEDTAVYYCARSGIYHYVSSYYFDHWGKGTTVTVSS VL: DIQMTQSPSTLSASVGDRVTITCKASQDVGTAVAWYQQKPGKAPKLLIYWASTRHTGVPSRFSGSGSGTEFTLTISSLQPDDFATYYCQQYSSYTFGGGTKVEIK
16 | 0.44 | – | BG87P-Bz2 (antibody, V domains shown) VH: QIQLVQSGAEVKKPGASVKVSCKASGYTFTDYHINWVRQAPGQRLEWMGWIYPGSGYTKYNEKFKVRVTLTVDTSASTAYMELSSLRSEDTAVYFCARSGIYHYVSSYYFDHWGKGTTVTVSS VL: DIQMTQSPSTLSASVGDRVTITCKASQDVGTAVAWYQQKPGKSPKLLIYWASTRHTGVPSRFSGSGSGTEFTLTISSVQPDDFATYFCQQYSSYTFGGGTKVEIK
17 | 0.56 | – | BG87P-Bz3 (antibody, V domains shown, also called BG87P-B23) VH: QIQLVQSGAEVKKPGASVKVSCKASGYSFTDYHINWVRQAPGQRLEWMGWIYPGSGYTKYNEKFKVRVTITVDTSASTAYMELSSLRSEDTAVYFCARSGIYHYVSSYYFDHWGKGTTVTVSS VL: DIQMTQSPSTLSASVGDRVTITCKASQDVGTAVAWYQQKPGKSPKLLIYWASTRHTGVPSRFSGSGSGTEFTLTISSVQPDDFATYFCQQYSSYTFGGGTKVEIK
18 | 0.75 | – | BG87P-Bz6 (antibody, V domains shown, also called BG87P-B26) VH: QIQLVQSGAEVKKPGASVKVSCKASGYSFTDYHINWVRQAPGQRLEWMGWIYPGSGYTKYNEKFKVRVTLTVDTSASTAYMELSSLRSEDTAVYFCARSGIYHYVSSYYFDHWGKGTTVTVSS VL: DIQMTQSPSTLSASVGDRVTITCKASQDVGTAVAWYQQKPGKAPKLLIYWASTRHTGVPSRFSGSGSGTEFTLTISSVQPDDFATYFCQQYSSYTFGGGTKVEIK
19 | 0.28 | – | BG87P-m8 (antibody, V domains shown, Variant of BG87P-Bz0 with H33A) VH: QIQLVQSGAEVKKPGASVKVSCKASGYSFTDYAINWVRQAPGQRLEWMGWIYPGSGYTKYNEKFKVRVTLTVDTSASTAYMELSSLRSEDTAVYFCARSGIYHYVSSYYFDHWGKGTTVTVSS VL: DIQMTQSPSTLSASVGDRVTITCKASQDVGTAVAWYQQKPGKSPKLLIYWASTRHTGVPSRFSGSGSGTEFTLTISSVQPDDFATYFCQQYSSYTFGGGTKVEIK

Source: patent publication US20240301061A1 (BEIGENE SWITZERLAND, published 2024)
